Measurements as given in the supplement of paper PMC9170038.

System: MS2 coat protein
Assay: apparent KD of MS2 coat protein; designed switch direction (-1 OFF switch, 1 ON switch): -1; higher = weaker reporter binding
Summary of the method: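 SNAP-549-labelled MS2 coat protein was titrated, doubling from 0.7 or 1.5 nM to 3 µM, over designed RNA switches transcribed on Illumina chips by stalled E. coli RNA polymerase. Runs were done without input, with 200 uM small-molecule ligand, or with an oligonucleotide input. Apparent KD is the per-design median over clusters of curve-fitted normalised fluorescence.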

[1] = Eterna round: R95, input ligand: microRNA oligo, concentration not stated
[2] = input ligand: microRNA oligo, concentration not stated
[3] = Eterna round: R95, input ligand: FMN 200 uM
[4] = Eterna round: R95, input ligand: none

Sequence | apparent KD of MS2 coat protein (input ligand: FMN 200 uM) | apparent KD of MS2 coat protein (input ligand: none) | other results
GACUGCUGAGGAUAUACAUGAGGAUCACCCAUGUGCUUCAGUAUCGAAAGAUACAUUGGUAGAAGGUGGUAGUC [LRO-Excl3-08] (puzzle: Exclusion 3) |  |  | apparent KD of MS2 coat protein [1]: 14.9 nM
CAGCUGUCAGGAUAUCGUGCAUACAACGAAAGUUCUAUGUGCGAGAAGGGACAUGAGGAUCACCCAUGUUUCCG [Omei Ex4 A23] (Eterna round: R97, puzzle: Exclusion 4) | 21.1 nM | 16.1 nM | 
ACAUGAGGAUCACCCAUGUUAUGUUGGGUACUAAAUUAUUCGUAGGAUAUCGAAGCUAGUUUGUGCGAGAAGGACGCAUUUUUU [JR_ExcNG3_Sub058] (Eterna round: R96, puzzle: Exclusion NG 3) | 147 nM | 201 nM | apparent KD of MS2 coat protein [2]: 176 nM
CGAAAGUUAGGAUAUGCCCGGAACGACAUGAGGAUCACCCAUGUUAGCAAGGGACCUGGCGCAGAAGGAACGGAUA [EX5 C.20] (Eterna round: R97, puzzle: Exclusion 5) | 20.2 nM | 19.3 nM | 
UUAAUGUGAGGAUAUCAGGUGUGCUAGCGUACUGGUACAUCUGAGAAGGCACAUGAGGAUCACCCAUGUUUCUU [JL-ex4-3.23 Brourd mod] (puzzle: Exclusion 4) |  |  | apparent KD of MS2 coat protein [1]: 26.7 nM
GGUGGUAUUGUUAGGAUAUGGCAUGCCCGAGGCGUCUAGAAGGGACAUGAGGAUCACCCAUGUCUAGAAUUAAU [Eternabot (L2) Solution 53] (Eterna round: R97, puzzle: Brourd's mod of Exclusion 4) | 41.2 nM | 45.5 nM | 
CCGGAAGUACAGGAUAUCGUAACGGAAACGUUACGAGAAGGGUAUACAUGAGGAUCACCCAUGUGUCCUACCGG [Mat - Exclusion 6 - Eli Mod - D93] (puzzle: Exclusion 6) |  |  | apparent KD of MS2 coat protein [1]: 22.6 nM
UACAUGAGGAUCACCCAUGUUUUGUCGUGUAUGGUAUUUAUCUAGGAUAUCAUUCUAUUUAGUUAUGAGAAGGAGAAUAUUAAU [JMF's solution 84] (Eterna round: R96, puzzle: Exclusion NG 3) |  |  | apparent KD of MS2 coat protein [2]: 21.1 nM
UAAACAAGCUUAAGAUCCUACAUGAGGAUCACCCAUGUGCUCGUCUUGUAACGUACUGUGACGAAAGUCACGGUACG [JL TOV1 3.09] (Eterna round: R97, puzzle: Sensor, turn-off variant 1) | 185 nM | 228 nM | 
AAUAAUGAUAAGGAUAUUACUAGCGAUAGCUAGUGAGAAGGUAUCACAUGAGGAUCACCCAUGUGUUCCAAUAA [Ex6/6-B4] (Eterna round: R97, puzzle: Exclusion 6) | 70.1 nM | 17.3 nM | 
CCGGCUUAGGAGGAUAUCAGAGUCGAAAGACUCUGAGAAGGCCUAACAUGAGGAUCACCCAUGUGUCCUACCGG [Mod of Eli 7 - Jieux - Exclusion 6] (Eterna round: R97, puzzle: Exclusion 6) | 81.5 nM | 25.1 nM | 
UACACUGCAUGAGGAUCAAACAUGAGGAUCACCCAUGUAUAGCAGGCUUUUUGUGCGUCUUAUAAUUAUGUAGUGUA [Electric Eye 18 - Jieux - Sensor, turn-off variant 1] (Eterna round: R97, puzzle: Sensor, turn-off variant 1) | 14.9 nM | 15.3 nM | 
UUGUUAUAUGUAGGAUAUGCAUAUUGUUAUUAUGCAGAAGGACAUGAGGAUCACCCAUGUAUAUUAUUAUUAUAUAUUAUAUAU [Title] (Eterna round: R96, puzzle: Exclusion NG 1) |  |  | apparent KD of MS2 coat protein [2]: 22.5 nM
GUACUGAAGCUUUGCUUUAGUCGUACAUGAGGAUCACCCAUGUAGGAUAUGGUAGGCAUAGCUUACUAGAAGGAUAGAGUGAUC [Mat - Exclusion NG 3 - Mod of JL - D64] (Eterna round: R96, puzzle: Exclusion NG 3) | 112 nM | 81.3 nM | apparent KD of MS2 coat protein [2]: 86 nM
UAUCGGGACUGAGGAUAUUCGUUCGAACACGAAGAAGAAGGUAGUGUCAGGGACAUGAGGAUCACCCAUGUGAUUUCAGUCCUA [JL ViennaUCT Erinle mod 3] (Eterna round: R96, puzzle: Exclusion NG 1) | 149 nM | 165 nM | apparent KD of MS2 coat protein [2]: 102 nM
GCUUGUGUUGAGGAUAUGCGCCGGCUCGCUGGCGCAGAAGGCGGCACAUGAGGAUCACCCAUGUCAGUUCGCGU [salish99_ex6_r004_010] (Eterna round: R97, puzzle: Exclusion 6) | 428 nM | 38 nM | 
AUAUAGAUAGUCAGGAUAUACUAGUGAUAACAGUAGUAGAAGGGACAUGAGGAUCACCCAUGUAGAUACUGCAC [Brourd's EX4 #2] (Eterna round: R97, puzzle: Brourd's mod of Exclusion 4) | 22.2 nM | 21.2 nM | 
AAUCCACAUGAGGAUCACCCAUGUCAGGAUAUCGCGCGCGCGGUUUCGGUCGCGCGCGCGAGAAGGGACGGCUG (puzzle: Exclusion 1) |  |  | apparent KD of MS2 coat protein [1]: 22.1 nM

Sequence | apparent KD of MS2 coat protein (input ligand: FMN 200 uM) | apparent KD of MS2 coat protein (input ligand: none) | other results
AAUCUUCUAGGAUAUAUAUGGUAGCGGGAGAACCCAGUCACACAUGAGGAUCACCCAUGUAGAAGGAGAAUAGG [Eternabot (L1) Solution 87] (Eterna round: R97, puzzle: Exclusion 2) | 107 nM | 99.7 nM | 
CUGUUUUCCGCAGGAUAUGCUCCUCCAUUAUUUGCAGAAGGGCGUUGAACAUGAGGAUCACCCAUGUAUGUAAUUGAUUAUUGC [JR_ExcNG1_Sub070] (Eterna round: R96, puzzle: Exclusion NG 1) | 27.7 nM | 33.8 nM | apparent KD of MS2 coat protein [2]: 27.5 nM
AGCUAGUCAGGAUAUACGUAAAUGUCGAAAGACGUAUUGGGACAUGAGGAUCACCCAUGUAGAAGGGACUAGCA [Mod of Janderson's WEB Mod v.1] (Eterna round: R96, puzzle: Exclusion 2) | 168 nM | 24.8 nM | apparent KD of MS2 coat protein [2]: 19.7 nM
CGAGGUAGAGGAUAUACGUGGAUGUAAAUUCAUGUUAAUCUACAUGAGGAUCACCCAUGUAGAAGGCUAUAGCG [JR_Ex2_Sub076] (Eterna round: R97, puzzle: Exclusion 2) | 27.8 nM | 30.6 nM | 
GAGAAGUGAGGAUAUACGAUAAGGAUGAAAGGAAGGAAUGAGUAGAAGGCACAUGAGGAUCACCCAUGUAGAGU [JR_Exclu4_Sub079] (puzzle: Exclusion 4) |  |  | apparent KD of MS2 coat protein [3]: 24.1 nM; apparent KD of MS2 coat protein [1]: 25.1 nM; apparent KD of MS2 coat protein [4]: 26.3 nM
UUGACGGCAGGAUAUACAUGAGGAUCACCCAUGUAAAUUUUUCGUUUAACUUGAAUGUGUAGAAGGGCCAAACC [Ex3 #77] (Eterna round: R97, puzzle: Exclusion 3) | 19.4 nM | 20.4 nM | 
GAUAGAGAGCAGGAUAUCUUAGAUAUGUAAUAUAGAGAAGGGCUCACAUGAGGAUCACCCAUGUGGUCCUAGAU [JL Dibiri mod 14] (puzzle: Exclusion 6) |  |  | apparent KD of MS2 coat protein [3]: 94 nM; apparent KD of MS2 coat protein [1]: 15.9 nM; apparent KD of MS2 coat protein [4]: 16.1 nM
CUGAGCAGACGGAGAUCCAACAUGAGGAUCACCCAUGUCUCAAAAGCUUUUUGCUCAUCUUAUCCUCCUCUGUUCUC [Edcesobi] (puzzle: Sensor v3, turn-off variant 1) |  |  | apparent KD of MS2 coat protein [3]: 20.5 nM; apparent KD of MS2 coat protein [1]: 336 nM; apparent KD of MS2 coat protein [4]: 17.9 nM
UCGUGUGCGUAGGAUAUCGGUAUGAAGGGAGAAUGAGAAGGGCGGACAUGAGGAUCACCCAUGUGUGCCGGAAA [EX6 B.4] (Eterna round: R97, puzzle: Exclusion 6) | 43.3 nM | 18 nM | 
AAUUUGUGAGGAUAUCCAAUAUAUGACAUGAGGAUCACCCAUGUUUCCACUCGUACCUCCGGAGAAGGCACUGCAA [Ex5 #38] (Eterna round: R97, puzzle: Exclusion 5) | 21.4 nM | 23.6 nM | 
GACUUCUCUGAGGAUAUUGCAUCACCCGAUCUAUAAGAAGGCAGAACAUGAGGAUCACCCAUGUGGGUUUCUAG [Bingo-Bango-27] (Eterna round: R97, puzzle: Exclusion 6) | 40.6 nM | 29.7 nM | 
GGAUUACAUGAGGAUCACCCAUGUGAGGAUAUCCCGACAGGUUGCAGAGAACCUCGUAGGAGAAGGCACAGGCG [EX1 B.12] (Eterna round: R97, puzzle: Exclusion 1) | 234 nM | 102 nM | 
GUCUGGUUAGGAUAUACAGUGUCCACGAGUUAGUUGCCCUAACAUGAGGAUCACCCAUGUAGAAGGAGCGAGAA [Erisared] (Eterna round: R96, puzzle: Exclusion 2) | 22.7 nM | 16.6 nM | apparent KD of MS2 coat protein [2]: 13.3 nM
UCGUUCCGUGUAGGAUAUUGGCCUUCCUCGGGCCGAGAAGGACAUGAGGAUCACCCAUGUAUGCUAUUAUCGCGCGUGGCGCAC [Design 96] (Eterna round: R96, puzzle: Exclusion NG 1) | 141 nM | 33 nM | apparent KD of MS2 coat protein [2]: 24.5 nM
CCGAAACAUGAGGAUCACCCAUGUCAGGAUAUUCCAAAAUCGUCGAAAGACGAUAACAGAAGAAGGGACAUCGG [Fiskxlusion 1 - Jieux - Exclusion 1] (Eterna round: R97, puzzle: Exclusion 1) | 93.7 nM | 58 nM | 
GUAGAGUAAGGAUAUGCUGAAUAGGAUAGAAUGGUUAGAAAGCAGAAGGUACAUGAGGAUCACCCAUGUAAUGU [Excluse me!!!! 18 - Jieux - Exclusion 4] (puzzle: Exclusion 4) |  |  | apparent KD of MS2 coat protein [1]: 20 nM
CACCGUUAACUAGGAUAUAGUACAUGAGGAUCACCCAUGUAAUAAAUGAGAAUUUCGGAUGUAUGCUAGAAGGAGUAAAUCGGC [Ostricism 48 - Jieux - Exclusion NG 2] (Eterna round: R96, puzzle: Exclusion NG 2) |  |  | apparent KD of MS2 coat protein [2]: 45.5 nM
